Data as given in article PMC6017093.

Tests used:
[1] = biological target: T1, CD20 (B-lymphocyte antigen), expressed on HEK293T cells (human) (UniProt P11836); experiment: flow cytometry (cell binding); conditions: no shift on untransfected HEK293T, DPBS with 4.5 g/L glucose, 5 mM MgCl2, 0.1 mg/mL yeast tRNA, 1 g/L BSA (10% FBS in flow assay), on ice 30 min, aptamer heated 95 C 5 min and snap-cooled, pH …
T1 sequence: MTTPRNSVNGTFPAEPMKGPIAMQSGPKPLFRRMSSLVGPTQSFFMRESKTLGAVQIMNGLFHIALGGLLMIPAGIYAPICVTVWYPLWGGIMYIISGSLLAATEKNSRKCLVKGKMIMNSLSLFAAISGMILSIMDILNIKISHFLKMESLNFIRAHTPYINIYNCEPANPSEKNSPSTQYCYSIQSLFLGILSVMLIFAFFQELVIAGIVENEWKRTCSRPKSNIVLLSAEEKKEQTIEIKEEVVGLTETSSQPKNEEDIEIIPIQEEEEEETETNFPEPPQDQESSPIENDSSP

[2] = biological target: T2, CD20 on Pre-B ALL bone marrow cells (human) (UniProt P11836); experiment: flow cytometry (cell binding); conditions: T-ALL (CD20-low) control 1.5%, DPBS with 4.5 g/L glucose, 5 mM MgCl2, 0.1 mg/mL yeast tRNA, 1 g/L BSA (10% FBS in flow assay), on ice 30 min, aptamer heated 95 C 5 min and snap-cooled, pH …
T2 sequence: T1 sequence

“ATACCAGCTTATTCAATTGGAATAAGGGGGTATTACTGTCTGGTAAACAAACGCTATGCGAGGGGATTCAAGATAGTAAGTGCAATCT [AP-1]” showed a Kd [1] of 96.9 nM and a binding signal (% positive cells) [2] of 71.4.
